We go through 3 molecules from patent US20060128606A1, “Fibrils” (priority 1998, published 2006).

The term solubility denotes how much of the substance goes into solution per volume.

Marks after values point to notes of the source that are not given here. Ends that are not written are not given here.

What all share (format): physicochemical
The nature of data set [1]: β-sheet content from CD ellipticity at 215 nm. Conditions: 0.4 mg/mL. The procedure: CD spectra were recorded on a Jasco J720 spectropolarimeter using quartz cuvettes of 1 mm pathlength, at 1 nm intervals from 195 to 250 nm. Routinely, CD samples were examined 30 min after dilution from the peptide stock solution containing 50% acetonitrile.
Calculation of the β-sheet content was carried out using the ellipticity at 215 nm normalized to a per residue basis (units: deg cm^2/dmol).

Data set [2] in a line: Congo red binding assay of amyloid fibril formation (CspB peptides). The arrangement: key: (++) strongly positive; (+) weakly positive; (0) no positive evidence. The procedure: For the congo red binding assay of fibril formation, absorption spectra of a 10 μM solution of the dye in the assay buffer (5 mM phosphate pH 7.41 […]) before and after addition of the peptide solution were recorded on a Perkin Elmer (Foster City, Calif.) Lambda 16 spectrometer in the range of 400 to 700 nm.
Analysis by three independent techniques of samples produced by dilution of concentrated solutions of all three peptides ([…]) from 50% to either 10 or 90% acetonitrile was carried out to screen for the presence of amyloid fibrils.
(§1) Aggregated states of all three peptides produced in 10 and 90% acetonitrile were analysed using these techniques.

Data set [3] in a line: Hydrodynamic radii by NMR diffusion measurements (pulse field gradient). The following applies: 10 mg/mL peptide in 50% acetonitrile.
Description: All NMR spectra were acquired at ^1H frequencies of 500 or 600 MHz on homebuilt NMR spectrometers at the Oxford Centre for Molecular Sciences. One dimensional (1D) spectra typically contain 8K complex data points. Two dimensional (2D) experiments were acquired with 2K complex data points in the t2 dimension, and in phase-sensitive mode using time proportional phase incrementation (TPPI) for quadrature detection in t1. Diffusion constants were determined using pulse field gradient experiments with 8K complex points. Spectral widths of 8,000 Hz were used for all experiments. […] The water signal was suppressed either by using presaturation during the 1.2 s relaxation delay or by using a gradient double echo. […] Data were processed using Felix 2.3 (BIOSYM) on Sun workstations. Typically, the data were zero filled once, and processed with a double exponential window function for the 1D, and a sinebell squared function, shifted over 90° for each dimension of the 2D spectra. All spectra were referenced to an internal standard of dioxan at 3,743 ppm.
A short description of data set [4]: Solubility in aqueous buffer or acetonitrile cosolvent. Conditions: aqueous buffer; aqueous buffers, pH 6.0 to 7.2, no cosolvent; read-out: Solubility under similar conditions (aqueous buffers). As to the method: In contrast, none of the three peptides are soluble under similar conditions to any significant extent; CspB-2, for example, dissolves only to ˜0.2 mg/mL. To solubilize the peptides, acetonitrile was used as a cosolvent at pH 4.0 (formic acid, unbuffered). […] A standardized set of combinations of peptide concentration and solvent composition was used, involving peptide concentrations of 0.4, 2 and 10 mg/mL, and acetonitrile concentrations of 10, 50 and 90%.

Data set [5] is described as follows: Light microscopy of congo red stained precipitates, green birefringence (CspB peptides). The arrangement: key: (++) strongly positive; (+) weakly positive; (0) no positive evidence. Conditions: 2.0 mg/mL peptide. As to the method:
Yellow green birefringence indicates the presence of cross […].
(§2) Analysis by three independent techniques of samples produced by dilution of concentrated solutions of all three peptides (10.0 mg/mL diluted to 2.0 mg/mL final concentration) from 50% to either 10 or 90% acetonitrile was carried out to screen for the presence of amyloid fibrils.
as §1

Data set [6] can be described thus: Transmission electron microscopy screen for amyloid fibrils (CspB peptides). Further details: key: (++) strongly positive; (+) weakly positive; (0) no positive evidence. Conditions: 2.0 mg/mL peptide. The procedure:
Fibril formation and morphology were examined by transmission electron microscopy (EM). Peptide samples were dried onto formvar-and carbon-coated grids and negatively stained with 1% phosphotungstic acid (PTA). Grids were examined in a JEOL JEM-1010 electron microscope at 80 kV excitation voltage.
as §2, §1

A short description of data set [7]: 1D NMR estimate of percentage of peptide visible in solution. The following applies: 10 mg/mL in 50% acetonitrile. The procedure: A series of 1D spectra was used to estimate the percentage of peptide visible by solution NMR. These 1D spectra were all acquired with a gain of 7,000 and 256 scans on the same 500 MHz NMR spectrometer, in consecutive experiments. The concentration of a tryptophan solution was calculated from its absorbance at 280 nm. The integration of the indole resonances in these ID spectra from the tryptophan and peptide solutions was used to estimate the concentration of the peptide solutions.
Any small oligomers (whose signals merge with the monomer signal if conformational interconversion takes place on a time scale shorter than that resolvable by this method, i.e. less than ˜100 ms) can only exist as minor populations. […] The remainder must therefore be in large soluble aggregates whose overall tumbling times are too large to give resolvable NMR […].

Data set [8] is described as follows: Thioflavin T assay of muscle acylphosphatase aggregate. The following applies: aggregate after two weeks in 25% v/v TFE, pH 5.5, 25° C. The procedure: (§3) Muscle acylphosphatase was purified as previously reported (A. Modesti et al. (1995) Protein Express Purif. 6, 799) and incubated at a concentration of 0.375 mg/ml (34 μM) in 25% v/v trifluoroethanol (TFE), acetate buffer, pH 5.5 at 25° C. under constant stirring. Aliquots were withdrawn at regular time intervals for electron microscopy and spectroscopic analysis. Circular dichroism spectra were acquired directly by means of a Jasco J-720 spectropolarimeter and cuvettes of 1 mm path length. Electron micrographs were acquired by a JEM 1010 transmission electron microscope at 80 kV excitation voltage. A 3 μL sample of protein solution was placed and dried for five minutes on a Formvar and carbon-coated grid. The sample was then stained with 3 μL 1% phosphotungstic acid solution and observed at magnifications of 25-100k.
(§4) Thioflavin T and Congo Red assays were performed according to Le Vine III (H. Le Vine III (1995) Amyloid: Int. J. Exp. Clin. Invest. 2,1.) and Klunk (W. E. Klunk et al. (1989) J. Histochem. Cytochem. 37, 1293), respectively. For Congo Red birefringence experiments aliquots of protein were air dried onto glass slides. The resulting films were stained with a saturated solution of Congo red and sodium chloride, corrected to pH 10.0 with 1% sodium hydroxide. The stained slides were examined by an optical microscope between crossed polarizers.

The nature of data set [9]: Congo Red absorption and birefringence of muscle acylphosphatase aggregate. The procedure: as §3, §4
[10] abbreviates: 10% acetonitrile, first experiment, 1.6 mg/mL peptide.
Setting [11] is: 10% acetonitrile, second experiment, 2.0 mg/mL peptide.
Where [12] appears, read: 90% acetonitrile, first experiment, 1.6 mg/mL peptide.
Where [13] appears, read: 90% acetonitrile, second experiment, 2.0 mg/mL peptide.
Where [14] appears, read: 10% acetonitrile, first experiment.
The mark [15] stands for this setting: 90% acetonitrile, first experiment.
Setting [16] is: 90% acetonitrile, second experiment.

As for “MLEGKVKWFNSEKGFGFIEVEGQDDVFVHFSAIQG [CspB-2]”, the “β-sheet content (CD)” value in data set [1] (2.5% acetonitrile) is 100%; in data set [1] (15 to 70% acetonitrile) it was ~20%; in data set [1] (97.5% acetonitrile), 71.5%. For the same molecule, the “Amyloid fibril formation, Congo Red” value was “++” in data set [2] (setting [10]), 0 in data set [2] (setting [11]), 0 in [2] (setting [12]) and “++” in [2] (setting [13]). For the same molecule, the “Hydrodynamic Stokes radius” value in [3] was 1.68 nm. The solubility in [4] was ~200 µg/mL. Further, the “Amyloid fibril formation, LM green birefringence” value in data set [5] (setting [14]) is “+”; in [5] (setting [15]), “++”; in [5] (setting [16]), 0. Further, the “Amyloid fibril formation, EM” value in data set [6] (10% acetonitrile) and in data set [6] (90% acetonitrile) was “++” throughout.
As to “CspB-1: peptide, residues 1-22 of B. subtilis cold shock protein CspB, corresponding to the first two β-strands (MLEGKVKWFNSEKGFGFIEVEG; UniProt P32081 1-22, looked up, fragment)”, the “Total peptide concentration detectable in the NMR spectra” value in data set [7] was ~20%. In addition, in [1] (90% acetonitrile), the “β structure content (CD)” value is recorded as ~70%. For the same molecule, the “Amyloid fibril formation, Congo Red” value in [2] (setting [10]) was “++, ++”; in [2] (setting [11]), “++, ++”; in [2] (setting [12]), “++”; in data set [2] (setting [13]), 0. The “Hydrodynamic Stokes radius” value in data set [3] was 1.60^a nm. For the same molecule, the “Amyloid fibril formation, LM green birefringence” value in data set [5] (setting [14]) was “++, ++”; in data set [5] (10% acetonitrile, second experiment) it was “++, ++”; in data set [5] (setting [15]), “++, ++”; in data set [5] (setting [16]), “++, ++”. Besides, the entries for the “Amyloid fibril formation, EM” value in data set [6] (10% acetonitrile) and in data set [6] (90% acetonitrile) were “++” and 0, respectively.

B1: muscle acylphosphatase: human muscle acylphosphatase protein, forms amyloid fibrils in 25% v/v trifluoroethanol (protein, UniProt P14621 2-99, looked up)
Acylphosphatase-2: STAQSLKSVDYEVFGRVQGVCFRMYTEDEARKIGVVGWVKNTSKGTVTGQVQGPEDKVNSMKSWLSKVGSPSSRIDRTNFSNEKTISKLEYSNFSIRY
For the molecule B1, in data set [8], the “Increase of the 482 nm fluorescence (excitation 440 nm) of Thioflavin T” value is given as “three fold increase”. For the same molecule, the “Congo Red birefringence under cross-polarised light” value in data set [9] (fibrils after two weeks of incubation) is given as “characteristic green birefringence”. Also, in data set [9] (spectrum of aggregate plus dye minus aggregate alone and dye alone), the “Congo Red difference spectrum, maximum intensity” value was 540 nm.
